Experimental data: US20110300579A1 (UNIVERSITY OF SOUTHERN CALIFORNIA, published 2011)

What was measured:
[1] = molecular target: purified soluble αvβ3 integrin (Millipore) (UniProt P06756 31-992; P05106 27-718)
[2] = molecular target: soluble recombinant α5β1 integrin (R&D Systems) (UniProt P08648 42-995; P05556 21-728)
[3] = molecular target: purified soluble αvβ5 integrin (Millipore) (UniProt P06756 31-992; P18084 24-719)
Chain of purified soluble αvβ5 integrin (Millipore) (P06756 31-992, chain 1 of 2): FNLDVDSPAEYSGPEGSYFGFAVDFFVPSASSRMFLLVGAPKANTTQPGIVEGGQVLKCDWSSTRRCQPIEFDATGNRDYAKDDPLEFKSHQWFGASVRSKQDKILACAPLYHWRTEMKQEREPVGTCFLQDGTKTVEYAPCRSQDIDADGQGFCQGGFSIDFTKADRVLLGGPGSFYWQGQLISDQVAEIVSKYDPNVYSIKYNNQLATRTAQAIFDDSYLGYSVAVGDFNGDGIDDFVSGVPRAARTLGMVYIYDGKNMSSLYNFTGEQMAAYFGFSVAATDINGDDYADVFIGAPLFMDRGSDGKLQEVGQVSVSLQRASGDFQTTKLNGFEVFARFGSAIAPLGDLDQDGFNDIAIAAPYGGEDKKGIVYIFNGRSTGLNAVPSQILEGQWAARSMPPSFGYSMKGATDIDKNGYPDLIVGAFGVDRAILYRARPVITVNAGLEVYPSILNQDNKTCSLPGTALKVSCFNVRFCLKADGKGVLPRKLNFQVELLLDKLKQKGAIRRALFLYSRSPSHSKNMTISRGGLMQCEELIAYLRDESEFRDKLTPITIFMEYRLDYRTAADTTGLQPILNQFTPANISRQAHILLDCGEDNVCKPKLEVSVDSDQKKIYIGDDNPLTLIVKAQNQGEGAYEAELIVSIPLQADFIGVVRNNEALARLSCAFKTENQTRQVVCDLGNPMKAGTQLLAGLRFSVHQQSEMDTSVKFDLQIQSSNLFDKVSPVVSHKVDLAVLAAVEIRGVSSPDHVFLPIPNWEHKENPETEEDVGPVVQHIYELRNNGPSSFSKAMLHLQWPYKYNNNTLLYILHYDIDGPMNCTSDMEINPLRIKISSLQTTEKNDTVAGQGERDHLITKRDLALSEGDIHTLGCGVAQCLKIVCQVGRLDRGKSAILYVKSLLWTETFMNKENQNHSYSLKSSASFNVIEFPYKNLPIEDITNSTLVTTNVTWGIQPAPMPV
Chain of purified soluble αvβ5 integrin (Millipore) (P18084 24-719, chain 2 of 2): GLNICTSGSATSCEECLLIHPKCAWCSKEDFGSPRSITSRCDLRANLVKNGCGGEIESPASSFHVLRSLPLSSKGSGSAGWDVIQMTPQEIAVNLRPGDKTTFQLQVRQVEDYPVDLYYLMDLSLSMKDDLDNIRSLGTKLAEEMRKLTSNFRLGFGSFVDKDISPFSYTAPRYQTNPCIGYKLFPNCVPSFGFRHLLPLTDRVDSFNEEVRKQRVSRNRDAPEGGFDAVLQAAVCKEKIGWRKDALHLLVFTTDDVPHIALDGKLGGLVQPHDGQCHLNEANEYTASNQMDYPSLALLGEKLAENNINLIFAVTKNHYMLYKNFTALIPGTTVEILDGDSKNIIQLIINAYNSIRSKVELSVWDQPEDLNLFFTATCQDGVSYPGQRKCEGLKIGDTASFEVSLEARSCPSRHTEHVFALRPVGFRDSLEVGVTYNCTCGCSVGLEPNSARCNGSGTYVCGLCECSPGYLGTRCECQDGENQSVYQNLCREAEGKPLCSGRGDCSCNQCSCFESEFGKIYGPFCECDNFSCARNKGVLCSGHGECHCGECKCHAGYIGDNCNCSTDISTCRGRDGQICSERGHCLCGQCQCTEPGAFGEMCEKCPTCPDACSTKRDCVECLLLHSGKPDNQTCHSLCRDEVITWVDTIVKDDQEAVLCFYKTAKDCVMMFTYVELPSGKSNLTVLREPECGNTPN

Chain of soluble recombinant α5β1 integrin (R&D Systems) (P08648 42-995, chain 1 of 2): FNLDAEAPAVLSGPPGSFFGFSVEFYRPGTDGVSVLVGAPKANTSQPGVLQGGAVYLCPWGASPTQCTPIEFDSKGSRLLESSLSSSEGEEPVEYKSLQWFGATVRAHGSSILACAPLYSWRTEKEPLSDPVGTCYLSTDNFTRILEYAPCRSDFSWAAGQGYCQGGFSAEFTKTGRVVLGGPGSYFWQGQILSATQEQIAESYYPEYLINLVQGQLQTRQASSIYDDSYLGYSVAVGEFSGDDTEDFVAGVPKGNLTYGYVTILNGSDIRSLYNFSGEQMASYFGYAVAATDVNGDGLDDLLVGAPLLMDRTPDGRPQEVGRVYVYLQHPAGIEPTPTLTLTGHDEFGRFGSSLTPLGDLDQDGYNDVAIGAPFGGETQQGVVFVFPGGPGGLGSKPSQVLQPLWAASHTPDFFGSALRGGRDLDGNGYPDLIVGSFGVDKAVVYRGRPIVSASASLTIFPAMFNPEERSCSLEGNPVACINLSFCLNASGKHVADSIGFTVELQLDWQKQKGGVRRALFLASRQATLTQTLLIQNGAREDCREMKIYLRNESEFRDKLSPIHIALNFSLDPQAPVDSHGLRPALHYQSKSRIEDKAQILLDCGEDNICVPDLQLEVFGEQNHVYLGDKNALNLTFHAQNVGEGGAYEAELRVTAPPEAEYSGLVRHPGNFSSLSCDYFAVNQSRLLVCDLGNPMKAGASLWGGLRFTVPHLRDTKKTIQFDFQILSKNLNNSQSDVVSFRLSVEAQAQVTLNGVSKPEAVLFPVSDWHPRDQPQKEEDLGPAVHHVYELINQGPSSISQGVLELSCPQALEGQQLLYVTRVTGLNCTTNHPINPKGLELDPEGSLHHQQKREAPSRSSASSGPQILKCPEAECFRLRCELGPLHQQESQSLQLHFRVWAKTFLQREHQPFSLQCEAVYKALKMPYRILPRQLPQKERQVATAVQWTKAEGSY
Chain of soluble recombinant α5β1 integrin (R&D Systems) (P05556 21-728, chain 2 of 2): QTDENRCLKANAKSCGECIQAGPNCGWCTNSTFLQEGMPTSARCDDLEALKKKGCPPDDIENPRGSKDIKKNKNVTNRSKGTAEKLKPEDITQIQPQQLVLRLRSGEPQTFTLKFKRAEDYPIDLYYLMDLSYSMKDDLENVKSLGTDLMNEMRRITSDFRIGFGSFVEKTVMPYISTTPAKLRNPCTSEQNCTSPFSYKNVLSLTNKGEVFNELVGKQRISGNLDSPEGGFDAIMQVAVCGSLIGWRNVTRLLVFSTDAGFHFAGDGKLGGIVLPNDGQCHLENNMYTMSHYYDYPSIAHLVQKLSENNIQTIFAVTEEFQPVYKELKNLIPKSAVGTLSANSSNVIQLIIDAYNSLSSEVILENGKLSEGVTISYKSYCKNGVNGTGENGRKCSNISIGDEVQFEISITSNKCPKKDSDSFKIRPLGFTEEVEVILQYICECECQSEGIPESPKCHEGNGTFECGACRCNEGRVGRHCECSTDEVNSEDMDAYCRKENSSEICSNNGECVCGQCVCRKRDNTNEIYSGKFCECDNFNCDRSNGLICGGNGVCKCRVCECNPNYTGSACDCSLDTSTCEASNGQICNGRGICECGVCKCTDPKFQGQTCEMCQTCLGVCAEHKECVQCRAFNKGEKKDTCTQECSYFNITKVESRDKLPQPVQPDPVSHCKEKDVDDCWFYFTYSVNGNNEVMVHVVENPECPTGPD
Chain of purified soluble αvβ3 integrin (Millipore) (P06756 31-992, chain 1 of 2): as the sequence (P06756 31-992, chain 1 of 2) above
Chain of purified soluble αvβ3 integrin (Millipore) (P05106 27-718, chain 2 of 2): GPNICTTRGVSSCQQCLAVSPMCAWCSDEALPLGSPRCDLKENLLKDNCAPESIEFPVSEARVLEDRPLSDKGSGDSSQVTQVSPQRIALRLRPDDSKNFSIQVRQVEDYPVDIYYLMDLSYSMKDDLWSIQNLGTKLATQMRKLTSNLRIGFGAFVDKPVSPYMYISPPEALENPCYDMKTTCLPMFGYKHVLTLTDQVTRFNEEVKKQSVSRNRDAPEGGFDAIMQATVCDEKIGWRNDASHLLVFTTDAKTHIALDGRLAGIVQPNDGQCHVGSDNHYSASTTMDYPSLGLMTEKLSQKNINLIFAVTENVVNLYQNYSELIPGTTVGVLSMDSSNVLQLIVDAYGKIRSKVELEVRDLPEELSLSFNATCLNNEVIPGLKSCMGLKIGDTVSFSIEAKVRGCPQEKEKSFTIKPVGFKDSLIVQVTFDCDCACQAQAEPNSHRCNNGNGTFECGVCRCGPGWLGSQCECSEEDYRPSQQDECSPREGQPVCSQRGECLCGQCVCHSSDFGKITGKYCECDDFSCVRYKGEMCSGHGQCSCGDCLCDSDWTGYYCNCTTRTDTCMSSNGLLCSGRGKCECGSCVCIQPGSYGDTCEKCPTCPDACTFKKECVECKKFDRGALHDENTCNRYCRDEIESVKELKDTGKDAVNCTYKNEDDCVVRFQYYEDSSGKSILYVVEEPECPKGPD

B1: Contortrostatin (CN), native, purified from Agkistrodon contortrix contortrix venom (ligand)
chain: DAPANPCCDAATCKLTTGSQCADGLCCDQCKFMKEGTVCRRARGDDLDDYCNGISAGCPRNPFH
- Kd [1]: 6.6 nM
- Kd [2]: 191 nM
- Kd [3]: 19.5 nM
